Data from patent US20250332297A1, “DLL3-SPECIFIC BINDING CONSTRUCTS AND THEIR USE IN RADIOTHERAPY” (MOLECULAR PARTNERS AG, priority 2024, published 2025).
Where a chain is given by its changes, count along the chain named.

Columns and labels:
[1] = Pharmacokinetic analysis in WT BALBc mice (serum, ELISA); assay type: in vivo, mouse
Source text: The pharmacokinetic (PK) properties of lead-labelled DARPin (MAM160, MAM279, MAM282, MAM283) conjugates were investigated in mice, including to determine the terminal half-life (or serum half-life) of these conjugates.
In brief, DARPins MAM279, MAM283, MAM160 and MAM282 were conjugated to the chelator DOTAM, via a C-terminal Cysteine containing tag and a connector, as described in Example 3. The conjugates were then labelled with natural lead (Pb). The protein components of the conjugates corresponded to SEQ ID NOs: 15 to 18, respectively. These lead-labelled DARPin conjugates were injected i.v. at 1 mg/kg into WT BALBc mice. Serum was collected 2 min, 10 min, 30 min, 1 h, 4 h, 24 h, 48 h, and 72 h post-injection. DARPins were detected and measured by ELISA. The data were expressed as the DARPin concentration in serum (nmol/L).
In brief, lead-labelled MAM279 conjugate, as described in Example 13, was injected i. at 0.1 mg/kg or at 1 mg/kg into the tail vein of WT BALBc mice. Serum was collected 2 min, 10 min, 30 min, 1 h, 4 h, 24 h, 48 h, and 72 h post-injection for MAM279 conjugate injected at 1 mg/kg, and 2 min, 30 min, 4 h, 24 h, 30 h, 48 h, 72 h, 96 h, and 168 h post-injection for MAM279 conjugate injected at 0.1 mg/kg. DARPins were detected and measured by ELISA. The data were expressed as the DARPin concentration in serum (nmol/L).
In brief, natural lead-labelled MAM279 conjugate, as described in Example 13, was injected i.v. at different doses (0.001 mg/kg, 0.01 mg/kg, 0.1 mg/kg, or 1 mg/kg) into the tail vein of WT BALBc mice. Similarly, unconjugated Rova was injected iv. at 1 mg/kg into the tail vein of WT BALBc mice. Serum was collected 2 min, 10 min, 30 min, 1 h, 4 h, 24 h, 48 h, and 72 h post-injection for MAM279 conjugate injected at 1 mg/kg, and 2 min, 30 min, 4 h, 24 h, 30 h, 48 h, 72 h, 96 h, and 168 h post-injection for MAM279 conjugate injected at 0.1 mg/kg, 0.01 mg/kg and 0.001 mg/kg. Serum was collected 2 min, 30 min, 4 h, 24 h, 30 h, 48 h, 72 h, 96 h, and 168 h post-injection for Rova antibody injected at 1 mg/kg. DARPins and Rova were detected and measured by ELISA. Rova PK characteristics were calculated with time points between 4 h and 168 h and MAM279 conjugate PK characteristics were calculated with time points between 4 h and 72 h. The data were expressed as the DARPin or Rova concentration in serum (nmol/L). Results are shown in FIGS. 19A and 19B and Table 22.

[2] = biological target: T1, human DLL3 expressed on HEK293T-huDLL3 cells (Homo sapiens, UniProt Q9NYJ7); experiment: Cell binding titration on HEK293T-hDLL3 cells; assay type: cell-based; conditions: presence of human serum albumin (10 μM in FIG. 9 legend, 10 pM in the source), read-out: Cell binding EC50, with HSA
T1 construct: expressed in transfected cells; host or cells: HEK293T-hDLL3
T1 sequence (Q9NYJ7 27-618): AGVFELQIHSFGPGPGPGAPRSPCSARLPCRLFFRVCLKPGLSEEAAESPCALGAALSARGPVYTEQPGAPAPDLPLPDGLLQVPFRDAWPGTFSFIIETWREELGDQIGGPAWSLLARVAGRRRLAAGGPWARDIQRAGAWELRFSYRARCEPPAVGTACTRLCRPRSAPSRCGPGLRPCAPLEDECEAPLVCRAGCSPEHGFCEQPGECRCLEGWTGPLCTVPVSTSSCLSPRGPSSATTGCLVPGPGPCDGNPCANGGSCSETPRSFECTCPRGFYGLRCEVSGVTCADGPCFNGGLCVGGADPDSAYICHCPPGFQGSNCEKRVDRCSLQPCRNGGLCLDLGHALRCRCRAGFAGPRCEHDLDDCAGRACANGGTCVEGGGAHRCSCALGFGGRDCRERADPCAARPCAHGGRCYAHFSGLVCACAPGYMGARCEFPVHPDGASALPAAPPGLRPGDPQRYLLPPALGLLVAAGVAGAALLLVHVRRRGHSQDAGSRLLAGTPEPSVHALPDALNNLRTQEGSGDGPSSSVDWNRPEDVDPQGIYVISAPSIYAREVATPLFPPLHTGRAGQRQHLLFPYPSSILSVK

[3] = 1 mg/kg i.v., MAM279 natural lead-labelled conjugate (time points 4-72 h), Rova unconjugated (4-168 h), Table 22
[4] = 1 mg/kg i.v., MAM279 natural lead-labelled conjugate, Rova unconjugated, Table 22
[5] = natural lead-labelled DOTAM conjugate 0.1 mg/kg i.v., Table 17
[6] = natural lead-labelled DOTAM conjugate 1 mg/kg i.v., Tables 16, 17
[7] = natural lead-labelled conjugate 0.001 mg/kg i.v., Table 22
[8] = natural lead-labelled conjugate 0.01 mg/kg i.v., Table 22
[9] = natural lead-labelled conjugate 0.1 mg/kg i.v., Table 22

B1: MAM279: Two domain (2D) ankyrin repeat protein: serum albumin-specific domain (SEQ ID NO: 7), PT linker, DLL3-specific domain of MAM093 (protein)
chain: DLGKKLLEAARAGQDDEVRELLKAGADVNAKDYFSHTPLHLAARNGHLKIVEVLLKAGADVNAKDFAGKTPLHLAADAGHLEIVEVLLKAGADVNAQDIFGKTPADIAADAGHEDIAEVLQKAAGSPTPTPTTPTPTPTTPTPTPTGSDLGKKLLAAAAQGQDDEVRELLKAGANVNAKDLFGYTPLHLAAWRGHLEIVEVLLKAGADVNAKDAAGETPLHLAAWFGHLEIVEVLLKAGADVNAQDLQGKTPADLAAKEGHEDIAEVLQKAA
modifications: Ankyrin repeat protein (MAM279)
AUCINF_pre [1, 3]: 29.3837 µM·h
AUClast [1, 3]: 23892.0 h*hr*nmol/L
HL_Lambda_z [1, 3]: 30.5 h
AUC_%Back_Ext_pre [1, 4]: 0%
AUC_%Extrap_Pred [1, 4]: 19%
Cl_pred [1, 4]: 1.2 mL/h/kg
Cmax [1, 4]: 1330 nM
Tmax [1, 4]: 1.98 min
Vss_pred [1, 4]: 0.048 L/kg
AUCINF_pred [1, 5]: 2.4051 µM·h
AUC_% Back_Ext_pred [1, 5]: 0%
AUC_% Extrap_pred [1, 5]: 3%
AUClast [1, 5]: 2343.4 nmol·h/L
CI_pred [1, 5]: 1.4 mL/h/kg
Cmax [1, 5]: 88.3 nM
HL_Lambda_z [1, 5]: 32.8 h
Tmax [1, 5]: 1.98 min
Vss_pred [1, 5]: 0.066 L/kg
AUCINF_pred [1, 6]: 29.3837 µM·h
AUC_% Back_Ext_pred [1, 6]: 0%
AUC_% Extrap_pred [1, 6]: 19%
AUClast [1, 6]: 23892.0 nmol·h/L
CI_pred [1, 6]: 1.2 mL/h/kg
Cmax [1, 6]: 1330 nM
HL_Lambda_z [1, 6]: 30.5 h
Tmax [1, 6]: 1.98 min
Vss_pred [1, 6]: 0.048 L/kg
AUCINF_pre [1, 7]: 0.007 µM·h
AUC_%Back_Ext_pre [1, 7]: 0%
AUC_%Extrap_Pred [1, 7]: 28%
AUClast [1, 7]: 5.0 h*hr*nmol/L
Cl_pred [1, 7]: 4.9 mL/h/kg
Cmax [1, 7]: 0.29 nM
HL_Lambda_z [1, 7]: 39.9 h
Tmax [1, 7]: 1.98 min
Vss_pred [1, 7]: 0.267 L/kg
AUCINF_pre [1, 8]: 0.101 µM·h
AUC_%Back_Ext_pre [1, 8]: 0%
AUC_%Extrap_Pred [1, 8]: 3%
AUClast [1, 8]: 98.3 h*hr*nmol/L
Cl_pred [1, 8]: 3.4 mL/h/kg
Cmax [1, 8]: 3.7 nM
HL_Lambda_z [1, 8]: 33.1 h
Tmax [1, 8]: 1.98 min
Vss_pred [1, 8]: 0.157 L/kg
AUCINF_pre [1, 9]: 2.4051 µM·h
AUC_%Back_Ext_pre [1, 9]: 0%
AUC_%Extrap_Pred [1, 9]: 3%
AUClast [1, 9]: 2343.4 h*hr*nmol/L
Cl_pred [1, 9]: 1.4 mL/h/kg
Cmax [1, 9]: 88.3 nM
HL_Lambda_z [1, 9]: 32.8 h
Tmax [1, 9]: 1.98 min
Vss_pred [1, 9]: 0.066 L/kg
EC50 [2]: 16.3 nM

B2: MAM283: Two domain (2D) ankyrin repeat protein: serum albumin-specific domain (SEQ ID NO: 7), PT linker, DLL3-specific domain (SEQ ID NO: 3) (protein)
chain: B1 chain with Q160D, K171Q, N175D, K204E, K237E, L247V, K270Q
modifications: Ankyrin repeat protein (MAM283)
AUCINF_pred [1, 6]: 14.4943 µM·h
AUC_% Back_Ext_pred [1, 6]: 0%
AUC_% Extrap_pred [1, 6]: 2%
AUClast [1, 6]: 14243.6 nmol·h/L
CI_pred [1, 6]: 2.3 mL/h/kg
Cmax [1, 6]: 1440 nM
HL_Lambda_z [1, 6]: 12.7 h
Tmax [1, 6]: 1.98 min
Vss_pred [1, 6]: 0.035 L/kg
EC50 [2]: 18.4 nM

B3: Rova: Rova antibody, DLL3-binding benchmark antibody used as positive control and comparison (antibody, chains of the INN, looked up, V domains shown)
VH: QVQLVQSGAEVKKPGASVKVSCKASGYTFTNYGMNWVRQAPGQGLEWMGWINTYTGEPTYADDFKGRVTMTTDTSTSTAYMELRSLRSDDTAVYYCARIGDSSPSDYWGQGTLVTVSS
VL: EIVMTQSPATLSVSPGERATLSCKASQSVSNDVVWYQQKPGQAPRLLIYYASNRYTGIPARFSGSGSGTEFTLTISSLQSEDFAVYYCQQDYTSPWTFGQGTKLEIK
serum half-life ([1]; 1 mg/kg i.v.): about 145 hours
AUCINF_pre [1, 3]: 11.9183 µM·h
AUClast [1, 3]: 6636.1 h*hr*nmol/L
HL_Lambda_z [1, 3]: 145.8 h
AUC_%Back_Ext_pre [1, 4]: 0%
AUC_%Extrap_Pred [1, 4]: 44%
Cl_pred [1, 4]: 0.6 mL/h/kg
Cmax [1, 4]: 130 nM
Tmax [1, 4]: 1.98 min
Vss_pred [1, 4]: 0.12 L/kg
EC50 [2]: 0.3 nM

B4: MAM282: Two domain (2D) ankyrin repeat protein: serum albumin-specific domain (SEQ ID NO: 7), PT linker, DLL3-specific domain (SEQ ID NO: 2) (protein)
chain: DLGKKLLEAARAGQDDEVRELLKAGADVNAKDYFSHTPLHLAARNGHLKIVEVLLKAGADVNAKDFAGKTPLHLAADAGHLEIVEVLLKAGADVNAQDIFGKTPADIAADAGHEDIAEVLQKAAGSPTPTPTTPTPTPTTPTPTPTGSDLGKKLLAAAREGQDDEVRELLKAGADVNAKDIWGQTPLHIAAWFGHLEIVEVLLKAGADVNAKDQTGHTPLHLAAKFGHLEIVEVLLKAGADVNAQDLLGRTPADLAAEEGHEDIAEVLQKAA
modifications: Ankyrin repeat protein (MAM282)
AUCINF_pred [1, 6]: 8.435 µM·h
AUC_% Back_Ext_pred [1, 6]: 0%
AUC_% Extrap_pred [1, 6]: 17%
AUClast [1, 6]: 7038.9 nmol·h/L
CI_pred [1, 6]: 4 mL/h/kg
Cmax [1, 6]: 461 nM
HL_Lambda_z [1, 6]: 28.5 h
Tmax [1, 6]: 1.98 min
Vss_pred [1, 6]: 0.153 L/kg
EC50 [2]: 19.6 nM

B5: MAM279 conjugate: SEQ ID NO: 15 conjugated to DOTAM-maleimide, labelled with Pb-212 (natural lead in PK studies) (conjugate)
chain: GSDLGKKLLEAARAGQDDEVRELLKAGADVNAKDYFSHTPLHLAARNGHLKIVEVLLKAGADVNAKDFAGKTPLHLAADAGHLEIVEVLLKAGADVNAQDIFGKTPADIAADAGHEDIAEVLQKAAGSPTPTPTTPTPTPTTPTPTPTGSDLGKKLLAAAAQGQDDEVRELLKAGANVNAKDLFGYTPLHLAAWRGHLEIVEVLLKAGADVNAKDAAGETPLHLAAWFGHLEIVEVLLKAGADVNAQDLQGKTPADLAAKEGHEDIAEVLQKAAGSGSC
modifications: DOTAM-maleimide, Pb-212 label; Ankyrin repeat protein with tag (GS-MAM279-tag)
serum half-life ([1]; 0.001 mg/kg i.v.): 39.9 h
serum half-life ([1]; 0.01 mg/kg i.v.): 33.1 h
serum half-life ([1]; 0.1 mg/kg i.v.): 32.8 h
serum half-life ([1]; 1 mg/kg i.v.): 30.5 h
